# Molecular target: HA-JMJD5 (wildtype, pEF6) (human, UniProt Q8N371 1-416)
# Experiment: co-IP
# Sequence of HA-JMJD5 (wildtype, pEF6) (Q8N371 whole entry): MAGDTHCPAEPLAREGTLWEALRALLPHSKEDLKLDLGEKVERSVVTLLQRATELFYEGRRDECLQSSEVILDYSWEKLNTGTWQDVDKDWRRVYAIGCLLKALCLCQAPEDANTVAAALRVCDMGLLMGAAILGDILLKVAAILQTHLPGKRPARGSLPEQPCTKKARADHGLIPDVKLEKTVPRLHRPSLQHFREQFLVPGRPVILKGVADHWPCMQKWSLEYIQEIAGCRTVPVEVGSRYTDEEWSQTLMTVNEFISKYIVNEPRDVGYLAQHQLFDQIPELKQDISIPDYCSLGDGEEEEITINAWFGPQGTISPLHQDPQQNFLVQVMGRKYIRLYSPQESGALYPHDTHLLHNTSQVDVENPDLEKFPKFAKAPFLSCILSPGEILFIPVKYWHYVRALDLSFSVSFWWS
binder,measurement,value
"RCCD1-FLAG (wildtype, pIHZ) (natural protein) MAEERPGAWFGFGFCGFGQELGSGRGRQVHSPSPLRAGVDICRVSASWSYTAFVTRGGRLELSGSASGAAGRCKDAWASEGLLAVLRAGPGPEALLQVWAAESALRGEPLWAQNVVPEAEGEDDPAGEAQAGRLPLLPCARAYVSPRAPFYRPLAPELRARQLELGAEHALLLDAAGQVFSWGGGRHGQLGHGTLEAELEPRLLEALQGLVMAEVAAGGWHSVCVSETGDIYIWGWNESGQLALPTRNLAEDGETVAREATELNEDGSQVKRTGGAEDGAPAPFIAVQPFPALLDLPMGSDAVKASCGSRHTAVVTRTGELYTWGWGKYGQLGHEDTTSLDRPRRVEYFVDKQLQVKAVTCGPWNTYVYAVEKGKS",binding result,binds

# From article doi:10.1101/2025.11.22.689938 (bioRxiv, 2025)
